Test results published in PMC8722725, “Histone H3 deacetylation promotes host cell viability for efficient infection by Listeria monocytogenes” (PLoS Pathogens, 2021).

Biological target: T1, mCherry-TDP-43 (UniProt Q13148 1-414)
T1 construct: TDP-43, cloned from the plasmid TDP43 NOTAG1 (Addgene #28206); also called pmCherry TDP-43; source: HeLa, co-transfected, in lysate
Assay: co-IP; RFP-Trap agarose beads on lysate of HeLa cells co-transfected with mCherry-TDP-43 and SIRT2-GFP variants; blot for TDP-43 and GFP
Conditions: partners not purified

T1 sequence (Q13148 whole entry): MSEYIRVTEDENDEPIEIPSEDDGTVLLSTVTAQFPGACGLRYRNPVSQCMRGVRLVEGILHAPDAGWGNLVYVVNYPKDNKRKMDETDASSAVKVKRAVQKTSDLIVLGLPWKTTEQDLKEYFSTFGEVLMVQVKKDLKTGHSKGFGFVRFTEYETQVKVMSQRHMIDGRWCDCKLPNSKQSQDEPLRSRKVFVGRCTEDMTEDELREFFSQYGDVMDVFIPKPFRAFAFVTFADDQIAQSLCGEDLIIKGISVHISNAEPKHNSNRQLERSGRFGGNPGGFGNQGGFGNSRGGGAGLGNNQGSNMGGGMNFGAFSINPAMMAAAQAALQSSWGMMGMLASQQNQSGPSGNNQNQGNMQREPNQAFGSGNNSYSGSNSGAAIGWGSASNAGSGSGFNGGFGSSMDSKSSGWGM

fold increase in co-precipitation relative to the WT variant: ~2.5 fold
B1: dephosphomimetic S25A SIRT2-GFP (enzyme, UniProt Q8IXJ6 1-389, looked up)
chain: MAEPDPSHPLETQAGKVQEAQDSDADSEGGAAGGEADMDFLRNLFSQTLSLGSQKERLLDELTLEGVARYMQSERCRRVICLVGAGISTSAGIPDFRSPSTGLYDNLEKYHLPYPEAIFEISYFKKHPEPFFALAKELYPGQFKPTICHYFMRLLKDKGLLLRCYTQNIDTLERIAGLEQEDLVEAHGTFYTSHCVSASCRHEYPLSWMKEKIFSEVTPKCEDCQSLVKPDIVFFGESLPARFFSCMQSDFLKVDLLLVMGTSLQVQPFASLISKAPLSTPRLLINKEKAGQSDPFLGMIMGLGGGMDFDSKKAYRDVAWLGECDQGCLALAELLGWKKELEDLVRREHASIDAQSGAGVPNPSTSASPKKSPPPAKDEARTTEREKPQ
notes: Sirtuin 2 (SIRT2) with the dephosphomimetic change S25A; also called S25A dephosphomimetic; source: HeLa, co-transfected, in lysate
